Results on 22 molecules are retold here after patent publication US20110230406A1 (ADVANCED TECHNOLOGIES AND REGENERATIVE MEDICINE, published 2011).

In assay [1] the target is T1, biotinylated BMP-2 (R&D Systems, Item number 355-BM/CF) (human, UniProt P12643 283-396, biotinylated (sites not given)).
T1 construct: Bought protein, biotinylated, captured on streptavidin plates (phage ELISA) or streptavidin donor beads (ALPHA); also called bone morphogenic protein-2
As to the kind of experiment: mutant phage ELISA titration on BMP-2 by the procedure of Example 3. On the procedure:
(§1) To all other wells, 100 microliters of PBS was introduced. The plates were again washed 3 times with TBST using the plate washer. The wells were then blocked with 250 microliters of a 3% dehydrated milk suspension in TBST and allowed to sit at room temperature for a minimum of 1 hour. Using phage concentrations determined by the phage titrations, dilutions of the phage stock solutions were performed in a separate 96-well plate to result in phage concentrations of 10¹⁰, 10⁹, 10⁸, 10⁷, 10⁶ and 10⁵ phage/well. After blocking, the ELISA plate was washed 3 times with TBST and 100 microliters of the phage dilutions were introduced to the respective ELISA plates and allowed to sit at room temperature for a minimum of 1 hour. The ELISA plate was again washed 3 times with TBST using the plate washer and 100 microliters of an HRP-conjugated Anti-M13 Phage Mab (1:5000 dilution in PBS) was introduced to each well. The plates were allowed to sit at room temperature for 1 hour after which time the plates were washed 3 times with TBST. Next, a POD HRP-substrate was introduced to each well. The luminescence was read using a luminometer set with a gain of 150.
The respective custom oligonucleotide was obtained from Integrated DNA Technologies. The oligonucletides were inserted into the pIX gene using standard protocols. First, the oligonucletides were phosphorylated using T4 polynucleotide kinase. Next, the phosphorylated oligonucletides were annealed to the ssDNA template. Using the Kunkel method, the annealed DNA was ligated using T4 DNA ligase and T7 DNA polymerase. The resultant DNA was isolated using isopropanol precipitation and a gel was run to confirm the reaction. Lastly, electro-competent E. coli cells were transformed with the purified DNA and were plated out onto 2xYT/Tet/Xgal agar plates and allowed to grow overnight to isolate single colonies. An aliquot of the transformed cells was allowed to grow overnight at 37° C. while shaking in 50 mL 2xYT/tet media. The phage were then PEG precipitated following the procedure in Example 1. A phage titration was performed to determine the concentration of phage for the ELISA assay as described in Example 2. ELISA assays were performed following the procedure in Example 3.
A general note: An ELISA detects its analyte on a solid surface through an enzyme-linked reagent.

A further assay deals with T2, human serum albumin (human, UniProt P02768 25-609).
T2 construct: Cross-reactivity control coated at 5 micrograms/mL; also called HSA
As to the kind of experiment: phage ELISA, HSA-coated wells, HRP anti-M13 antibody, luminescence. On the procedure: as §1, with “96-well black ELISA plates were coated with streptavidin (Rows A through D), hIgG (Rows E and F) and human serum albumin (Rows G and H), at a concentration of 5 micrograms/mL in PBS. Plates were incubated overnight at 4° C. Plates were washed 3 times with TBST using a plate washer. To the streptavidin-coated wells in rows C and D, 100 microliters of a 4 micrograms/mL solution of biotinylated-BMP-2 (R&D Systems, Minneapolis, Minn., Item number 355-BM/CF), was introduced and allowed to sit at room temperature for 30 minutes. To” for “To”

Assay [2] addresses T1, biotinylated BMP-2 (R&D Systems, Item …). The assay can be described thus: phage ELISA, biotinylated BMP-2 captured on streptavidin-coated wells, HRP anti-M13 antibody, luminescence.

No end group written: not given here.

T1 sequence (P12643 283-396 limits assumed): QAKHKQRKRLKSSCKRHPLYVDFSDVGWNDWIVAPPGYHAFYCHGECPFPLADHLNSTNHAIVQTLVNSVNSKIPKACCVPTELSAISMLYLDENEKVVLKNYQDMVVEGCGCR

For AGRDSFNLLTSSPLSSS [SEQ ID NO: 32], the binding result in assay [1] was “binds”.

B1: phage displaying the peptide of SEQ ID NO: 6 on the pIX minor coat protein (peptide)
peptide: AGRDSFNLLTSSPLPST
modifications: also: displayed on phage pIX minor coat protein, junction not given here
notes: not shown: pIX minor coat protein of the phage that carries the peptide
As to B1, the binding result with human serum albumin is recorded as “no binding (tested: 10^9 phage/mL)”.

Turning to AGRDSFNLLTSSSSPST [SEQ ID NO: 31], the binding result in assay [1] is listed as “binds”.

B2: phage displaying the peptide of SEQ ID NO: 15 on the pIX minor coat protein (peptide)
peptide: AGSVCLAQYSATPLCPH
modifications: cysteine pairing not given here; also: displayed on phage pIX minor coat protein
notes: as for B1
Consider B2, for which the binding result is on record as “no binding (tested: 10^9 phage/mL)” with human serum albumin and “binds” in assay [2].

B3: phage displaying the peptide of SEQ ID NO: 5 on the pIX minor coat protein (peptide)
peptide: AGYRRPIQPGPEAVSLL
modifications: also: displayed on phage pIX minor coat protein, junction not given here
notes: as for B1
Turning to B3, the binding result is recorded as “no binding (tested: 10^9 phage/mL)” in the assay with human serum albumin and “binds” in assay [2].

B4: phage displaying the peptide of SEQ ID NO: 14 on the pIX minor coat protein (peptide)
peptide: AGRECLPQFGLPLCPD
modifications: cysteine pairing not given here; also: displayed on phage pIX minor coat protein
notes: as for B1
B4: the binding result with human serum albumin is recorded as “no binding (tested: 10^9 phage/mL)”; in assay [2] it was “binds”.

As to AGYTSFALSSSAESTLP [SEQ ID NO: 26], the binding result in assay [1] was “no binding (tested: 1.00E+10 phage/well)”.

B5: phage displaying the peptide of SEQ ID NO: 12 on the pIX minor coat protein (peptide)
peptide: AGASCSPGLHPLCPG
modifications: cysteine pairing not given here; also: displayed on phage pIX minor coat protein
notes: as for B1
B5: the binding result with human serum albumin is listed as “no binding (tested: 10^9 phage/mL)”; in assay [2] it was “binds”.

B6: phage displaying the peptide of SEQ ID NO: 11 on the pIX minor coat protein (peptide)
peptide: AGPRCPPMHFSVCLS
modifications: cysteine pairing not given here; also: displayed on phage pIX minor coat protein
notes: as for B1
As to B6, the binding result is “no binding (tested: 10^9 phage/mL)” with human serum albumin and “binds” in assay [2].

B7: phage displaying the peptide of SEQ ID NO: 8 on the pIX minor coat protein (peptide)
peptide: AGSWCTHPAIGCLS
modifications: cysteine pairing not given here; also: displayed on phage pIX minor coat protein
notes: as for B1
Take B7: the values for the binding result (with human serum albumin; in assay [2]) were “no binding (tested: 10^9 phage/mL)” and “binds”, respectively.

B8: phage displaying the peptide of SEQ ID NO: 17 on the pIX minor coat protein (peptide)
peptide: AGAHCLRDHMGLTSCIP
modifications: cysteine pairing not given here; also: displayed on phage pIX minor coat protein
notes: as for B1
With B8, the binding result with human serum albumin is on record as “no binding (tested: 10^9 phage/mL)”; in assay [2], “binds”.

B9: phage displaying the peptide of SEQ ID NO: 9 on the pIX minor coat protein (peptide)
peptide: AGSPCSPGQLPLCPA
modifications: cysteine pairing not given here; also: displayed on phage pIX minor coat protein
notes: as for B1
As to B9, the binding result with human serum albumin is listed as “no binding (tested: 10^9 phage/mL)”; in assay [2] it was “binds”.

B10: phage displaying the peptide of SEQ ID NO: 1 on the pIX minor coat protein (peptide)
peptide: AGLPLQSMSRLSYDSLS
modifications: also: displayed on phage pIX minor coat protein, junction not given here
notes: as for B1
Take B10: the binding result with human serum albumin is given as “no binding (tested: 10^9 phage/mL)”; in assay [2], “binds”.

B11: phage displaying the peptide of SEQ ID NO: 21 on the pIX minor coat protein (peptide)
peptide: AGIRCPVDAIGLTANCSY
modifications: cysteine pairing not given here; also: displayed on phage pIX minor coat protein
notes: as for B1
On to B11, for which the binding result with human serum albumin is on record as “no binding (tested: 10^9 phage/mL)”; in assay [2], “binds”.

B12: phage displaying the peptide of SEQ ID NO: 16 on the pIX minor coat protein (peptide)
peptide: AGPDCRLSPLQPAVCVW
modifications: cysteine pairing not given here; also: displayed on phage pIX minor coat protein
notes: as for B1
With B12, the binding result is given as “no binding (tested: 10^9 phage/mL)” with human serum albumin and “binds” in assay [2].

B13: phage displaying the peptide of SEQ ID NO: 13 on the pIX minor coat protein (peptide)
peptide: AGSTCIPSMTPLCPS
modifications: cysteine pairing not given here; also: displayed on phage pIX minor coat protein
notes: as for B1
As for B13, the binding result was “no binding (tested: 10^9 phage/mL)” with human serum albumin and “binds” in assay [2].

B14: phage displaying the peptide of SEQ ID NO: 18 on the pIX minor coat protein (peptide)
peptide: AGRLCHATVDGVAVGCLT
modifications: cysteine pairing not given here; also: displayed on phage pIX minor coat protein
notes: as for B1
Regarding B14, the binding result with human serum albumin is on record as “no binding (tested: 10^9 phage/mL)”; in assay [2] it was “binds”.

B15: phage displaying the peptide of SEQ ID NO: 10 on the pIX minor coat protein (peptide)
peptide: AGLQCSPPLPLYCEP
modifications: cysteine pairing not given here; also: displayed on phage pIX minor coat protein
notes: as for B1
With B15, the binding result in the assay with human serum albumin is on record as “no binding (tested: 10^9 phage/mL)”; in assay [2], “binds”.

B16: phage displaying the peptide of SEQ ID NO: 19 on the pIX minor coat protein (peptide)
peptide: AGTVCPPDLTGLTAACYY
modifications: cysteine pairing not given here; also: displayed on phage pIX minor coat protein
notes: as for B1
As for B16, the binding result is “no binding (tested: 10^9 phage/mL)” in the assay with human serum albumin and “binds” in assay [2].

B17: phage displaying the peptide of SEQ ID NO: 20 on the pIX minor coat protein (peptide)
peptide: AGTLCGVDDYTGLTGCLA
modifications: cysteine pairing not given here; also: displayed on phage pIX minor coat protein
notes: as for B1
Regarding B17, the binding result with human serum albumin is recorded as “no binding (tested: 10^9 phage/mL)”; in assay [2], “binds”.

B18: phage displaying the peptide of SEQ ID NO: 2 on the pIX minor coat protein (peptide)
peptide: AGPPGPYIAASAFLALK
modifications: also: displayed on phage pIX minor coat protein, junction not given here
notes: as for B1
For B18, the binding result is given as “no binding (tested: 10^9 phage/mL)” with human serum albumin and “binds” in assay [2].

B19: phage displaying the peptide of SEQ ID NO: 22 on the pIX minor coat protein (peptide)
peptide: AGRSCYREPSTMLYACTA
modifications: cysteine pairing not given here; also: displayed on phage pIX minor coat protein
notes: as for B1
With B19, the binding result is listed as “no binding (tested: 10^9 phage/mL)” with human serum albumin and “binds” in assay [2].
